In patent publication US7998940B2, “Aptamers to von Willebrand factor and their use as thrombotic disease therapeutics” (Archemix Corp., priority 2004, dated 2011):
Changes are numbered by the printed parent chain. Like-named read-outs stand apart in the source and are kept apart here. Oligonucleotides are written 5' to 3', each unit as a sugar letter and its base; * is a phosphorothioate linkage, no mark a phosphodiester; rarer units and linkages stand in square brackets, end groups in braces. Plain capitals give the bases only. d = 2'-deoxy (DNA); r = 2'-OH (RNA); f = 2'-fluoro

B1: AMX199.B3: DNA SELEX 1 aptamer clone (nucleic acid)
DNA: CTACCTACGATCTGACTAGCGGAATGAGAATGCTGATGGATTGCTCAGGTCTGCTGGCTGCTTACTCTCATGTAGTTCC
modifications: DNA, backbone not given here
notes: DNA SELEX 1 aptamer clone
B2: AMX199.D11: DNA SELEX 1 aptamer clone (nucleic acid)
DNA: B1 DNA with A36G
modifications: DNA, backbone not given here
notes: DNA SELEX 1 aptamer clone
B3: AMX206.A10: rRdY aptamer clone (nucleic acid)
chain: rGrGrArGdCrGdCrAdCdTdCrArGdCdCrAdCrGrGdCrAdTrGrAdCrGrGdTrGrAdTrGrArAdTdTrArGdCrGdCrGrGdTrGdTdCrGrGdTrGrGdTrGdTdCrAdTdTdTdCrGrAdCdCdTdCdTdCdTrGdCdTrArGdC
B4: AMX205.D11: rRdY aptamer clone (nucleic acid)
chain: rGrGrArGdCrGdCrAdCdTdCrArGdCdCrAdCrGrGdCrAdCrGrAdCrGrGdTrGrAdTrGrArAdTdTrArGdCrGdCrGrGdTrGdTdCrGrGdTrGrGdTrGdTdCrAdTdTdTdCrGrAdCdCdTdCdTdCdTrGdCdTrArGdC
B5: AMX198.G1: rRfY aptamer clone (nucleic acid)
chain: rGrGrArGfCrGfCrAfCfUfCrArGfCfCrAfCrArAfCrAfCfUrArAfUrGrGrGrGrArArArGfUfUfCrArArGrGrAfUfUfCfUfUrGrAfCfCrGrGfUrGfCrGfUfUfUfCrGrAfCfCfUfCfUfCfUrGfCfUrArGfC
B6: AMX203.A1: rRdY aptamer clone (nucleic acid)
chain: rGrGrArGdCrGdCrAdCdTdCrArGdCdCrAdCrArGdTdTdCdTrGdTdCrGrGdTrGrAdTrGrArAdTdTrArGdCrGdCrGrGrGrArGdCdTrGdTrGrGrGrAdCrGdTdTdTdCrGrAdCdCdTdCdTdCdTrGdCdTrArGdC
B7: AMX205.F9: rRdY aptamer clone (nucleic acid)
chain: rGrGrArGdCrGdCrAdCdTdCrArGdCdCrAdCrGrGrArGdCrGdTdCrGrGdTrGrAdTrGrGrAdTdTrArGdCrGdCrGrGdCdTdCdCrGdTrGrGdTrAdCrGdCdCdTdTdTdCrGrAdCdCdTdCdTdCdTrGdCdTrArGdC
B8: AMX205.H11: rRdY aptamer clone (nucleic acid)
chain: rGrGrArGdCrGdCrAdCdTdCrArGdCdCrAdCrGrGdCrAdCrGrAdCrGrGdTrGrAdTrGrGrAdTdTrArGdCrGdCrGrGdTrGdTdCrGrGdTrGrGdTrGdTdCrAdTdTdTdCrGrAdCdCdTdCdTdCdTrGdCdTrArGdC
B9: AMX206.F9: rRdY aptamer clone (nucleic acid)
chain: rGrGrArGdCrGdCrAdCdTdCrArGdCdCrAdCrGrGrArGdCrGdTdCrGrGdTrGrAdTrGrGrAdTdTrArGdCrGdCrGrGdCdTdCdCrGdTrGrGdTrAdCrAdCrAdTdTdTdCrGrAdCdCdTdCdTdCdTrGdCdTrArGdC
B10: AMX206.D7: rRdY aptamer clone (nucleic acid)
chain: rGrGrArGdCrGdCrAdCdTdCrArGdCdCrAdCrGrGdCrAdCrGrAdCrGrGdTrGrAdTrGrArAdTdTrArGdCrGdCrGrGdTrGdTdCrGrGdTrGrGdTrGdTdTrAdTdTdTdCrGrAdCdCdTdCdTdCdTrGdCdTrArGdC
B11: AMX206.H9: rRdY aptamer clone (nucleic acid)
chain: rGrGrArGdCrGdCrAdCdTdCrArGdCdCrAdCrGrGrArGdCrGdTdCrGrGdTrGrAdTrGrGrAdTdTrArGdCrGdCrGrGdTdTdCdCrGdTrGrGdTrAdCrAdCdCdTdTdTdCrGrAdCdCdTdCdTdCdTrGdCdTrArGdC
B12: AMX201.G1: rRfY aptamer clone (nucleic acid)
chain: rGrGrArGfCrGfCrAfCfUfCrArGfCfCrAfCrGfCfUfCrGrGfUrGrGrGrGrArArAfUfUfUfUrArGfCfCfUrArAfUfUrGrGfCfUrAfCfUfUrGfUrGfCrGfUfUfUfCrGrAfCfCfUfCfUfCfUrGfCfUrArGfC
B13: AMX205.H9: rRdY aptamer clone (nucleic acid)
chain: rGrGrArGdCrGdCrAdCdTdCrArGdCdCrAdCrGrAdCrGrGdTrGrAdTrGrGrAdTdTrArGdCrGdCrGrGdTrGrGrArGrArArGrAdTrGdCrGdCdTrGdTdTrGdTdTdTdCrGrAdCdCdTdCdTdCdTrGdCdTrArGdC
B14: AMX206.E7: rRdY aptamer clone (nucleic acid)
chain: rGrGrArGdCrGdCrAdCdTdCrArGdCdCrAdCrGrGrArGdCrGdTdCrGrGdTrGrAdTrGrGrAdTdTrArGdCrGdCrGrGdCdTdCdCrGdTrGrGdTrAdCrAdCdCdTdTdTdCrGrAdCdCdTdCdTdCdTrGdCdTrArGdC

Tests used:
[1] = target: T1, human vWF A1 domain (SEQ ID NO 5) (Homo sapiens, UniProt P04275, T1381A); assay: 3-point dot blot screen, human vWF A1 domain; assay type: binding; settings: 100 nM human vWF A1 domain
Method in brief: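 Values are ratios of aptamer fraction retained on nitrocellulose with 100 nM vWF A1 domain (human or rabbit) versus a no-protein control. Unique clones from rounds 9 and 12 pools were transcribed, desalted and 5'-32P labeled before this three-point dot blot screen.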

[2] = tested on: rabbit vWF A1 domain (SEQ ID NO 6); assay: 3-point dot blot screen, rabbit vWF A1 domain; assay type: binding; settings: 100 nM rabbit vWF A1 domain, ratio of fraction bound with target to without
Method in brief: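 Rabbit vWF A1 domain binding was screened by dot blot using three conditions: no target protein, human vWF, and rabbit vWF A1 domain at 100 nM (20 nM in the screen run twice). Radiolabeled aptamer bound to nitrocellulose was quantified, and results are expressed as the ratio of bound fraction with protein to bound fraction without protein.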

[3] = target: T1, human vWF A1 domain (SEQ ID NO 5); assay: dot blot KD determination, human vWF A1 domain
Protocol: For KD determination, aptamers transcripts were purified on 10% denaturing polyacrylamide gels, 5′ end labeled with γ-^32P ATP.
For KD determination, aptamers were purified on denaturing polyacrylamide gels and 5′-end labeled with γ-^32P ATP. A 6 point protein titration of human vWF A1 domain (SEQ ID NO 5) was used in the dot blot assay (333 nM, 100 nM, 33 nM, 10 nM, 3 nM, 0 nM) in 1×DPBS plus 0.1 mg/mL BSA at room temperature for 30 minutes. KD values were calculated by fitting the equation y=(max/(1+K/protein))+yint using KaleidaGraph (KaleidaGraph v. 3.51, Synergy Software).
KD values were calculated by fitting the equation y=(max/(1+K/protein))+yint using KaleidaGraph (KaleidaGraph v. 3.51, Synergy Software).
All minimer sequences were transcribed, gel-purified on 15% denaturing polyacrylamide gels, 5-^32 end-labeled with γ^32P ATP, and then desalted using two Centri-Spin 10 columns (Princeton Separations Cat. #CS-101, Adelphia, N.J.). For KD determination, minimer transcripts were tested for direct binding to full length human vWF (SEQ ID NO 7), human vWF A1 domain (SEQ ID NO 5), and rabbit vWF A1 domain (SEQ ID NO 6) using an 8 point protein titration from 0-300 nM (3 fold dilutions) in 1× Dulbecco's PBS containing 0.1 mg/mL BSA (in a final volume of 50 uL) for 30 minutes at room temperature and then applied to a nitrocellulose and nylon filter sandwich in a dot blot apparatus (Schleicher and Schuell, Keene, N.H.). KD values were calculated by fitting the equation y=(max/(1+K/protein))+yint using KaleidaGraph (KaleidaGraph v. 3.51, Synergy Software).
All minimer DNA sequences were chemically synthesized, 5-^32P end-labeled with γ-^32P ATP, and then desalted using two Centri-Spin 10 columns (Princeton Separations, Cat. #CS-101, Adelphia, N.J.). […] KD values were calculated by fitting the equation y=(max/(1+K/protein))+yint using KaleidaGraph (KaleidaGraph v. 3.51, Synergy Software).

[4] = tested on: full length human vWF binding to lyophilized platelets; assay: Full length human von Willebrand Factor platelet binding assay (FACS); assay type: cell-based; settings: 5 nM full length human vWF, lyophilized platelets, botrocetin; both bounds in nM
Protocol: The amount of vWF bound to fixed platelets can be measured with an antibody to vWF. The fluorescence signal from bound antibody incubated with a fluorescein conjugated secondary antibody is then detected and quantified by flow cytometry. The ability of an aptamer of the invention to block vWF binding to platelets is correlated with a reduction in fluorescence signal.
Aptamer potency to block human vWF binding to lyophilized platelets was assessed by flow cytometric analysis. Titrations of aptamers (0 nM, 0.1 nM to 1000 nM) were pre-incubated briefly with 5 nM of full length human vWF in FACS buffer (PBS plus 0.5% bovine serum albumin) at room temperature in a volume of 50 uL. Another 50 uL containing 5 uL of lyophilized platelets plus 1 uL of 0.1 U/uL of botrocetin in FACS buffer was added to aptamer/vWF. This reaction was allowed to proceed for 15 minutes at 37 degrees C. after which 200 uL of FACS buffer was added. Platelets were collected by a 6 minute spin at 1470 RCF and the supernatant was discarded. The pellets were resuspended in 100 uL of FACS buffer containing a 1:100 dilution of anti-vWF antibody and were incubated at room temperature for 30 minutes. After dilution with 200 uL of FACS buffer, the platelets were spun at 1470 RCF for 6 minutes and the supernatant was discarded. The pellets were resuspended in a 1:100 solution of anti-IgG2a-FITC antibody and were incubated in the dark for 30 minutes at room temperature. The entire 100 uL was diluted into 200 uL of FACS buffer and analyzed immediately by flow cytometric analysis in the FACSCAN. Artifactual data from contaminating debris was eliminated from the analysis by drawing a gate around the population of single and aggregated platelets. Mean fluorescent intensity (“MFI”) readings were quantified for each sample analyzed by flow cytometry. Background MFI was subtracted from all data points. Percent inhibition was reported by calculating the percent value of binding of full length human vWF to platelets in the presence of aptamer at a given concentration relative to binding in the absence of any aptamer (see FIG. 7). IC50 values were determined by fitting the percent inhibition of vWF binding to platelets as a function of aptamer concentration to the equation: % inhibition=% inhibitionmax/(1+IC50/aptamer conc.)

[5] = DNA SELEX 1 aptamers, ratio of fraction bound with target to without
[6] = read-out: Human A1 KD, DNA SELEX 1 aptamers, competition dot blot, 100 nM protein, cold competitor titration
[7] = rRdY aptamers, ratio of fraction bound with target to without
[8] = read-out: Human A1 KD, rRdY aptamers, 6 point protein titration
[9] = rRfY aptamers, ratio of fraction bound with target to fraction bound without target
[10] = read-out: human A1 KD, rRfY aptamers, 8 point titration of human vWF A1 domain

T1 sequence (P04275 with tags, fused parts or gaps T1381A): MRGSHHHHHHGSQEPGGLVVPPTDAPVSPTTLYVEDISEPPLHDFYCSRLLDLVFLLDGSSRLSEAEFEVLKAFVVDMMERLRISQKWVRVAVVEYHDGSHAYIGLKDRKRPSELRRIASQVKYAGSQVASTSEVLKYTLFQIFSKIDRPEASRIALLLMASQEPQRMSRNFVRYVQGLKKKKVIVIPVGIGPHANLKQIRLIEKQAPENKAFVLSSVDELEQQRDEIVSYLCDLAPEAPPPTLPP
Sequence of rabbit vWF A1 domain (SEQ ID NO 6) (as listed by the source): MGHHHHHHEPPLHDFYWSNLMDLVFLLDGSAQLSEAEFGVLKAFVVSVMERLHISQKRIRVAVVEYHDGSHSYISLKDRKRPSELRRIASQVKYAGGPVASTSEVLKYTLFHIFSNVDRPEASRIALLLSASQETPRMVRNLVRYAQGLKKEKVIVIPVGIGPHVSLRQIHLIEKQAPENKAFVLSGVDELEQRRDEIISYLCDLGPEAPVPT

Molecule	Screen- Human/No Protein [1, 5]	Screen- Rabbit/No Protein ([2]; DNA SELEX 1 aptamers)	Kd [3, 6]	Screen- Human/No Protein [1, 7]	Screen- Rabbit/No Protein ([2]; rRdY aptamers)	Inhibition of full length hVWF binding in FACS assay, IC50 range [4]	Kd [3, 8]	Screen- Human/No Protein [1, 9]	Screen- Rabbit/No Protein ([2]; rRfY aptamers)	Kd [3, 10]
B1	1.76	1.99	30 nM	–	–	–	–	–	–	–
B2	4.19	3.42	30 nM	–	–	–	–	–	–	–
B3	–	–	–	2.62	2.58	no activity	111 nM	–	–	–
B4	–	–	–	2.22	2.07	no activity	124 nM	–	–	–
B5	–	–	–	–	–	no activity	–	1.89	1.90	45 nM
B6	–	–	–	2.99	2.67	no activity	1150 nM	–	–	–
B7	–	–	–	2.22	2.47	no activity	145 nM	–	–	–
B8	–	–	–	2.18	2.41	no activity	144 nM	–	–	–
B9	–	–	–	2.98	3.00	no activity	139 nM	–	–	–
B10	–	–	–	2.19	2.08	no activity	187 nM	–	–	–
B11	–	–	–	1.98	2.31	no activity	109 nM	–	–	–
B12	–	–	–	–	–	no activity	–	2.14	2.20	190 nM
B13	–	–	–	2.36	3.14	no activity	178 nM	–	–	–
B14	–	–	–	2.11	2.26	no activity	151 nM	–	–	–
